The source of these data is patent JP2019041668A.

Assay [1] concerns the target グリセルアルデヒド由来AGEs含有マウス血清アルブミン (Glycer-AGEs-MSA) (mouse) (UniProt P07724). Description: SPR, Biacore T200; Glycer-AGEs-MSA amine-coupled on CM5 chip, antibody 0.001-100 nM as analyte. (In SPR one partner is held on a chip, and binding of the other changes the refractive index at the surface.)
For assay [2] the target is unchanged. Description: SPR, Biacore T200; Glycer-AGEs-MSA amine-coupled on CM5 chip, antibody 0.8-800 nM as analyte.

Where a chain is given by its changes, count along the chain named.

UniProt P07724, sequence (P07724 25-608, form in doubt): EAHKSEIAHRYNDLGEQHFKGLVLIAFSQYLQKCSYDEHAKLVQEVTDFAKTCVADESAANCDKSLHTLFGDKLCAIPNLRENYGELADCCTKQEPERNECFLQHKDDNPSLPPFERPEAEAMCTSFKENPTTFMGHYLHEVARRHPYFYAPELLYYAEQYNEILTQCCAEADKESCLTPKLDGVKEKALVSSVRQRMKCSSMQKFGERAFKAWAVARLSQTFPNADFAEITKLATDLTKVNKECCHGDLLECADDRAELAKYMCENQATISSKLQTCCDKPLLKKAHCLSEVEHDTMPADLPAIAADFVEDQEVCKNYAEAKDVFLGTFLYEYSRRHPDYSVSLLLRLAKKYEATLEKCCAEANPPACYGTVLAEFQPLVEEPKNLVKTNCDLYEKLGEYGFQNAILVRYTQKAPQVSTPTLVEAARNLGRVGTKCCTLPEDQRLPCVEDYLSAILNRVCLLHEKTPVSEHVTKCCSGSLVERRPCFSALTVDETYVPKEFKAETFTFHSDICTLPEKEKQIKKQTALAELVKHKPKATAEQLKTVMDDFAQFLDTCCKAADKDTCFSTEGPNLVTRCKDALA

B1: モノクローナル抗体 6B3 (antibody, V domains shown)
VH: VKLQQSGAELVKPGASVKLSCKASGYTFTSYWMHWVKQRPGQGLEWIGEINPSNGRSNYKEKFKFKATLTVDKSSRTAYMQLSSLTSEDSAVYYCARGASWFAYWGQGTTVTVSS
VL: QIVLTQSPAIMSASPGEKVTISCSASSSVSYMYWYQQKPGSSPKPWIYRTSNLASGVPARFSGSGSGTSYSLTISSMEAEDAATYYCQQYHSYPRTFGGGTKLEIKR
With B1, the Kd – broadly, the equilibrium constant for the complex coming apart – in assay [1] was 47.6 nM.

B2: モノクローナル抗体 11G4 (antibody, V domains shown)
VH: B1 VH with Q5E, A15T, S84R
VL: ENVLTQSPTIMAASLGQKVTMTCSATSNVSSSYLHWYQQKSGASPKPLIHRTSDLASGVPTRFSGSGSGTSYSLTITSVEAEDDATYYCQQWSGYPFTFGAGTKLELKR
With B2, the Kd in assay [2] stood at 376 nM. This counts as sub-micromolar.
